Reference: patent publication US20240261333A1, “NOVEL TARGETS FOR ENHANCING ANTI-TUMOR IMMUNITY” (THE BROAD INSTITUTE, INC., priority 2021, published 2024)

Assays:
[1] = molecular target: CTSD (UniProt P07339); experiment: co-IP with mouse IgG control, mass spectrometry; lysate of C-FLAG B3GNT2 cells
[2] = molecular target: HBA1 (UniProt P69905); experiment: as above
[3] = molecular target: PPIA (UniProt P62937); experiment: as above
[4] = molecular target: RCC2 (UniProt Q9P258); experiment: as above
RCC2, sequence (Q9P258 whole entry): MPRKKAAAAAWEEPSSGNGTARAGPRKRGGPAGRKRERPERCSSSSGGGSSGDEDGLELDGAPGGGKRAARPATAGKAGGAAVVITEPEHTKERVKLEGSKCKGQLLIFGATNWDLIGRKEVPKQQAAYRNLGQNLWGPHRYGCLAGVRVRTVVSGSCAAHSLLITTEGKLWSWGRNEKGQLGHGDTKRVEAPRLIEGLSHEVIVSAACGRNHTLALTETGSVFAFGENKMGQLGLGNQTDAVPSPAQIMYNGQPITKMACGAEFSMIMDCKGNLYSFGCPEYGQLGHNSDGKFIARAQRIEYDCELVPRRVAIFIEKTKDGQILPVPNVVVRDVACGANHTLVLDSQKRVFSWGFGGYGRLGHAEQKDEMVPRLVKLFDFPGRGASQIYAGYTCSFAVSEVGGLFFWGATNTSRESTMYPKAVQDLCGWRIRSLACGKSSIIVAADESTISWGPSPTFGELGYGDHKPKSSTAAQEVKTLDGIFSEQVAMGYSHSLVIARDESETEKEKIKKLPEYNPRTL

[5] = molecular target: RPL11 (UniProt P62913); experiment: as above
[6] = molecular target: RPL35A (UniProt P18077); experiment: as above
[7] = molecular target: RPLP2 (UniProt P05387); experiment: as above
RPLP2, sequence (P05387 whole entry): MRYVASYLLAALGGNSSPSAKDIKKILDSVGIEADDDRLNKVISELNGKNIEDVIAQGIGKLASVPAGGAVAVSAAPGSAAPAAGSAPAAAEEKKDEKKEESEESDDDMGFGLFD

[8] = molecular target: RPS15A (UniProt P62244); experiment: as above
[9] = molecular target: S100A8 (UniProt P05109); experiment: as above
[10] = molecular target: S100A9 (UniProt P06702); experiment: as above
[11] = molecular target: TPI1 (UniProt P60174); experiment: as above
TPI1, sequence (P60174 2-249 limits assumed): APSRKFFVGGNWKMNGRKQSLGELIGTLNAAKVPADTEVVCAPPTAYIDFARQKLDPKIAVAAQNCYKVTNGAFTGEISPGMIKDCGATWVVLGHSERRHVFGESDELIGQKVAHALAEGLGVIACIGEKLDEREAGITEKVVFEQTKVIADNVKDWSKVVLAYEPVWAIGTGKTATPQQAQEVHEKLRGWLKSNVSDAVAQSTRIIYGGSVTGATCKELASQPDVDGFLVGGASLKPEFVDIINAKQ

[12] = molecular target: TRIM21 (UniProt P19474); experiment: as above
TRIM21, sequence (P19474 whole entry): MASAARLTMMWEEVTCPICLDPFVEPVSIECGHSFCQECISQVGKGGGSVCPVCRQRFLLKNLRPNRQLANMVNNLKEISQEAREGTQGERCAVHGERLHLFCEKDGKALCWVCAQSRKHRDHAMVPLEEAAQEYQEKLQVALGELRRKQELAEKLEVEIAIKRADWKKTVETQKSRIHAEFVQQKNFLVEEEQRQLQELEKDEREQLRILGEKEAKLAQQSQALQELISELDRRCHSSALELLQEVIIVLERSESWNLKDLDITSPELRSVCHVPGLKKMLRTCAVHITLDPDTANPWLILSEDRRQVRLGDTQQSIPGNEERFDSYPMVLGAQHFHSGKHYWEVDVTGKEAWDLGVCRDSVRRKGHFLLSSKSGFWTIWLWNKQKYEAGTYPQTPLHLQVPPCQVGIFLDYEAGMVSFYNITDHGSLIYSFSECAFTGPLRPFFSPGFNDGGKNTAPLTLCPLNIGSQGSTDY

[13] = molecular target: ACTR3 (UniProt P61158); experiment: co-IP with anti-FLAG, mass spectrometry; C-FLAG B3GNT2
[14] = molecular target: ATP5F1B (UniProt P06576); experiment: as above
[15] = molecular target: ATXN2L (UniProt Q8WWM7); experiment: as above
ATXN2L, sequence (Q8WWM7 whole entry): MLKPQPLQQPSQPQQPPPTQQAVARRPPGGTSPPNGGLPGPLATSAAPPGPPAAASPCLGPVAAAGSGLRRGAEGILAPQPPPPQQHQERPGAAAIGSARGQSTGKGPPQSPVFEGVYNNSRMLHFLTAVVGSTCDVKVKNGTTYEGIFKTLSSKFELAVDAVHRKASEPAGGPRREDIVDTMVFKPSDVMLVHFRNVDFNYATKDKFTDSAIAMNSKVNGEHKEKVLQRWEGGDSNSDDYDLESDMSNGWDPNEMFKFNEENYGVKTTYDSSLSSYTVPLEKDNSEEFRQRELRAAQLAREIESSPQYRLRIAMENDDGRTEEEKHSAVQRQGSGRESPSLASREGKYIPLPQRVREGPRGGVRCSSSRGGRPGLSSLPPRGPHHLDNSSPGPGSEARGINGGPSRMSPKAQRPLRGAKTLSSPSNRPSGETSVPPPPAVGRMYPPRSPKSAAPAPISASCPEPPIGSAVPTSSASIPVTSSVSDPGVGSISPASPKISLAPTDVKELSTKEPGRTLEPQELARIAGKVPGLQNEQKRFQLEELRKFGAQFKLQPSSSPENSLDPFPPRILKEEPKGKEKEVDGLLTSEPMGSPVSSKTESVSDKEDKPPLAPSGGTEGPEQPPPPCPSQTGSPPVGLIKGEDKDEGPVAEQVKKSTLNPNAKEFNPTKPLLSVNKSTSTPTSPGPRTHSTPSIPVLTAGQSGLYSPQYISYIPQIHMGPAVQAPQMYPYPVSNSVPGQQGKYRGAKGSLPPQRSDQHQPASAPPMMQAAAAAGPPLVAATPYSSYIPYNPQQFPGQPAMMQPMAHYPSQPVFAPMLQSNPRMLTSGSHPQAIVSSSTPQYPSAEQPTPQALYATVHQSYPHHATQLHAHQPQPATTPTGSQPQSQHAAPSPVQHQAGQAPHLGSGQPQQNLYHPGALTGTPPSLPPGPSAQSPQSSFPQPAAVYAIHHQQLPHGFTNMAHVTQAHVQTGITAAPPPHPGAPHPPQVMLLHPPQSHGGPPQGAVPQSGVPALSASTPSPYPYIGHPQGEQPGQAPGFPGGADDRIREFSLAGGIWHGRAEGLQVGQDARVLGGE

[16] = molecular target: CTSD (UniProt P07339); experiment: as above
[17] = molecular target: EEF1A1 (UniProt P68104); experiment: as above
[18] = molecular target: FABP5 (UniProt Q01469); experiment: as above
FABP5, sequence (Q01469 2-135 limits assumed): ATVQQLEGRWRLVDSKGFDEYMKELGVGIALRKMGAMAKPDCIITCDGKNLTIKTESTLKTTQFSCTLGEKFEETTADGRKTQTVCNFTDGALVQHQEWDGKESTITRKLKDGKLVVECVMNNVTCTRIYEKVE

[19] = molecular target: HBA1 (UniProt P69905); experiment: as above
[20] = molecular target: HNRNPA1 (UniProt P09651); experiment: as above
[21] = molecular target: HNRNPF (UniProt P52597); experiment: as above
HNRNPF, sequence (P52597 2-415 limits assumed): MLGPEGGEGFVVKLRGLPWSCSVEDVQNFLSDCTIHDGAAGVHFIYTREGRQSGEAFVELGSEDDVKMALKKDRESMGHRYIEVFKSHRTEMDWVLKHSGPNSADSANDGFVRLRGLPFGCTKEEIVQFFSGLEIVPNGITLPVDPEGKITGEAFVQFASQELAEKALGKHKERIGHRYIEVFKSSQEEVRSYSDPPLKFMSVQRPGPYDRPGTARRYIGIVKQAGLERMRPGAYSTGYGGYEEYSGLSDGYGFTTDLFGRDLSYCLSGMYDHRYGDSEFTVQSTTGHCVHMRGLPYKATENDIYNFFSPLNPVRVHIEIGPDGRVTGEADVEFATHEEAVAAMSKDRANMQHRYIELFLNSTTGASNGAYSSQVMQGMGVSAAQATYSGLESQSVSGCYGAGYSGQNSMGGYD

[22] = molecular target: LTF (UniProt P02788); experiment: as above
[23] = molecular target: LYZ (UniProt P61626); experiment: as above
LYZ, sequence (P61626 19-148 limits assumed): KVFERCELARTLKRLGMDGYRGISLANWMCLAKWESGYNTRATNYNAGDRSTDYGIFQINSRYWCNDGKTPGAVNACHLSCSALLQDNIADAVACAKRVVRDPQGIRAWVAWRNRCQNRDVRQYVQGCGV

[24] = molecular target: PCMT1 (UniProt P22061); experiment: as above
PCMT1, sequence (P22061 2-227 limits assumed): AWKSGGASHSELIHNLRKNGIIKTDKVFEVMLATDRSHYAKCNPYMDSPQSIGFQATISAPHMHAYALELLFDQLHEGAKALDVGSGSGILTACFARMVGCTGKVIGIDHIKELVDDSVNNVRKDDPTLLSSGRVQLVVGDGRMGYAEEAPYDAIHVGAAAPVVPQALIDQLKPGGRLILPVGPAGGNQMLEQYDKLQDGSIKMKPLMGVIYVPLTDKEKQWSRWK

[25] = molecular target: RCC2 (UniProt Q9P258); experiment: as above
[26] = molecular target: RPL11 (UniProt P62913); experiment: as above
[27] = molecular target: RPL21 (UniProt P46778); experiment: as above
[28] = molecular target: RPL31 (UniProt P62899); experiment: as above
[29] = molecular target: RPL35A (UniProt P18077); experiment: as above
[30] = molecular target: RPL36 (UniProt Q9Y3U8); experiment: as above
[31] = molecular target: RPL36A (UniProt P83881); experiment: as above
[32] = molecular target: RPLP2 (UniProt P05387); experiment: as above
[33] = molecular target: RPS15A (UniProt P62244); experiment: as above
[34] = molecular target: SERPINB12 (UniProt Q96P63); experiment: as above
SERPINB12, sequence (Q96P63 other isoform, or with tags, fused parts or gaps limits assumed): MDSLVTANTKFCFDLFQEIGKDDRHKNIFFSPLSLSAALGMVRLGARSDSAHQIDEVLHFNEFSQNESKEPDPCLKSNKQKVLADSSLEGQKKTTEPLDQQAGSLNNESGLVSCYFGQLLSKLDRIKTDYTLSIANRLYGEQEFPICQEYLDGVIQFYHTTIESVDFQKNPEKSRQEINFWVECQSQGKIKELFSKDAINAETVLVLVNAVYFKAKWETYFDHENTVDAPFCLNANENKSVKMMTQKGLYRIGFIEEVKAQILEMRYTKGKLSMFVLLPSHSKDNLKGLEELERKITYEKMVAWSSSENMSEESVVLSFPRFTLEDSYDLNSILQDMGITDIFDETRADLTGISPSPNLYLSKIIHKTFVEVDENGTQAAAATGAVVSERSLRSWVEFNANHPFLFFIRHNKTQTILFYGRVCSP

[35] = molecular target: SLIRP (UniProt Q9GZT3); experiment: as above
[36] = molecular target: SSR1 (UniProt P43307); experiment: as above
[37] = molecular target: STRAP (UniProt Q9Y3F4); experiment: as above
STRAP, sequence (Q9Y3F4 whole entry): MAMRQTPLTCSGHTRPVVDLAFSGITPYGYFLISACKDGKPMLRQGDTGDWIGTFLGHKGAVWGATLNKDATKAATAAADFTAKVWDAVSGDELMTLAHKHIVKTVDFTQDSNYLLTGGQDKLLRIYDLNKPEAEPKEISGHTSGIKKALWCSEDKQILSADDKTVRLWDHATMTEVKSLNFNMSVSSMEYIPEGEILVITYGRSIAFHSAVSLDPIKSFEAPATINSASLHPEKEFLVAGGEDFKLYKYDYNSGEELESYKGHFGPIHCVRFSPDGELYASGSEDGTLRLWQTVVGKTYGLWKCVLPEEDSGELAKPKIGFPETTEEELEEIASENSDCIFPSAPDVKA

[38] = molecular target: TPI1 (UniProt P60174); experiment: as above
[39] = molecular target: UBA52 (UniProt P62987); experiment: as above
[40] = molecular target: YBX3 (UniProt P16989); experiment: as above
[41] = molecular target: YWHAZ (UniProt P63104); experiment: as above
YWHAZ, sequence (P63104 whole entry): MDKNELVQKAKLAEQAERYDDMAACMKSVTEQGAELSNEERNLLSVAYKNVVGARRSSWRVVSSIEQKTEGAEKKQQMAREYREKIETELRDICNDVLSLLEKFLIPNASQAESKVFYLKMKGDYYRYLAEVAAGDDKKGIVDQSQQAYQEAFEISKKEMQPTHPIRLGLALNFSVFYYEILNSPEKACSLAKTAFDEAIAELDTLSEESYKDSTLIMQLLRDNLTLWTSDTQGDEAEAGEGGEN

CTSD, sequence (P07339 65-412 limits assumed): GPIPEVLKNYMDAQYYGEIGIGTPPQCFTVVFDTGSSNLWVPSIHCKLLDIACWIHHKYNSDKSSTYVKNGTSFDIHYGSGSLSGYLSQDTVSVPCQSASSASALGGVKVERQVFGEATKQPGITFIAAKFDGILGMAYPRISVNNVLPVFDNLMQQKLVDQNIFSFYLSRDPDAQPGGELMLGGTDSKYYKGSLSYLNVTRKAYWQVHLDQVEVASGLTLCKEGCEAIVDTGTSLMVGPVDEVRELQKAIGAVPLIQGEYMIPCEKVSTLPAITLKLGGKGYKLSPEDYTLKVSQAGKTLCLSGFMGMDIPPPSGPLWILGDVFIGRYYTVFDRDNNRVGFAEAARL
HBA1, sequence (P69905 2-142 limits assumed): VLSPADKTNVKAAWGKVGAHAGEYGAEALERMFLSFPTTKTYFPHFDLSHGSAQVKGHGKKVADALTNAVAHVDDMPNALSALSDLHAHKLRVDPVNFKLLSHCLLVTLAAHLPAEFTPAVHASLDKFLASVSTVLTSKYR

“IgG control (Millipore Sigma 12-371) (antibody)” showed a co-IP mass spectrometry count [1] of 0, a co-IP mass spectrometry count [2] of 0 and a co-IP mass spectrometry count [3] of 0. It also gave a co-IP mass spectrometry count [4] of 0, a co-IP mass spectrometry count [5] of 3 and a co-IP mass spectrometry count [6] of 0. The co-IP mass spectrometry count [7] was 0, the co-IP mass spectrometry count [8] was 2 and the co-IP mass spectrometry count [9] was 5. The co-IP mass spectrometry count [10] was 5, the co-IP mass spectrometry count [11] was 0 and the co-IP mass spectrometry count [12] was 0.
For “C-terminal FLAG tagged B3GNT2 (from UniProt Q9NY97 1-397) (enzyme)”, the co-IP mass spectrometry count [13] was 7, the co-IP mass spectrometry count [14] was 4 and the co-IP mass spectrometry count [15] was 5. It also gave a co-IP mass spectrometry count [16] of 4, a co-IP mass spectrometry count [17] of 11 and a co-IP mass spectrometry count [18] of 8. For the same substance, the co-IP mass spectrometry count [19] was 4, the co-IP mass spectrometry count [20] was 9 and the co-IP mass spectrometry count [21] was 7. The co-IP mass spectrometry count [22] was 7, the co-IP mass spectrometry count [23] was 6 and the co-IP mass spectrometry count [24] was 2. It also gave a co-IP mass spectrometry count [25] of 6, a co-IP mass spectrometry count [26] of 7 and a co-IP mass spectrometry count [27] of 11. It also gave a co-IP mass spectrometry count [28] of 6, a co-IP mass spectrometry count [29] of 6 and a co-IP mass spectrometry count [30] of 6. It also gave a co-IP mass spectrometry count [31] of 11, a co-IP mass spectrometry count [32] of 13 and a co-IP mass spectrometry count [33] of 6. For the same substance, the co-IP mass spectrometry count [34] was 2, the co-IP mass spectrometry count [35] was 6 and the co-IP mass spectrometry count [36] was 4. It also gave a co-IP mass spectrometry count [37] of 3, a co-IP mass spectrometry count [38] of 2 and a co-IP mass spectrometry count [39] of 20. The co-IP mass spectrometry count [40] was 7 and the co-IP mass spectrometry count [41] was 4.
